Laboratory results from the supplement of paper PMC5998384.

What was measured:
HeLa Kyoto [1] = test: solubility in G1/S (NP-40 vs SDS abundance) (log2 ratio); higher = more soluble; settings: cell cycle stage: G1/S
HeLa Kyoto [2] = test: melting temperature (median over replicates), in situ; higher = more thermally stable
HeLa Kyoto [3] = test: solubility change mitosis vs G1/S (difference of NP-40 vs SDS log2 ratios) (log2 ratio difference); higher = more soluble in mitosis
HeLa Kyoto [4] = test: thermal stability score vs G1/S (z-score of summed log2 fold changes over temperatures); higher = more thermally stable than in G1/S
[5] = cell cycle stage: early G1 (4.5 h after nocodazole release)
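Wherever melting temperature (median over replicates), in situ is given: HeLa Kyoto cells synchronized by double thymidine or nocodazole block, proteins quantified by TMT10plex mass spectrometry, three independent biological replicates.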
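Wherever solubility change mitosis vs G1/S (difference of NP-40 vs SDS log2 ratios) is given: synchronized HeLa Kyoto cells (double thymidine block for G1/S, nocodazole release for mitosis), protein amounts in NP-40 versus SDS lysates quantified by mass spectrometry, three biological replicates.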
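Wherever solubility in G1/S (NP-40 vs SDS abundance) is given: HeLa Kyoto cells arrested at G1/S by double thymidine block, proteins quantified by TMT10plex mass spectrometry in mild NP-40 versus SDS extracts, three biological replicates.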
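Wherever thermal stability score vs G1/S (z-score of summed log2 fold changes over temperatures) is given: synchronized HeLa Kyoto cells, proteins quantified by TMT10plex mass spectrometry, three biological replicates, mitosis taken 0.5 h after nocodazole release, G1/S directly after double thymidine block.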

Sequence	solubility in G1/S (log2) (HeLa Kyoto [1])	melting temperature (HeLa Kyoto [2]; cell cycle stage: G1/S) [°C]	melting temperature (HeLa Kyoto [2]; cell cycle stage: mitosis) [°C]	solubility change mitosis (log2) (HeLa Kyoto [3])	thermal stability score (HeLa Kyoto [4]; [5])	thermal stability score (HeLa Kyoto [4]; cell cycle stage: mitosis)
MGRTYIVEETVGQYLSNINLQGKAFVSGLLIGQCSSQKDYVILATRTPPKEEQSENLKHPKAKLDNLDEEWATEHACQVSRMLPGGLLVLGVFIITTLELANDFQNALRRLMFAVEKSINRKRLWNFTEEEVSERVTLHICASTKKIFCRTYDIHDPKSSARPADWKYQSGLSSSWLSLECTVHINIHIPLSATSVSYTLEKNTKNGLTRWAKEIENGVYLINGQVKDEDCDLLEGQKKSSRGNTQATSHSFDVRVLTQLLLNSDHRSTATVQICSGSVNLKGAVKCRAYIHSSKPKVKDAVQAVKRDILNTVADRCEMLFEDLLLNEIPEKKDSEKEFHVLPYRVFVPLPGSTVMLCDYKFDDESAEEIRDHFMEMLDHTIQIEDLEIAEETNTACMSSSMNSQASLDNTDDEQPKQPIKTTMLLKIQQNIGVIAAFTVAVLAAGISFHYFSD [ODR4]	-0.0468	50.6	51.1	-0.0887	0.605	0.226
MGSGPIDPKELLKGLDSFLNRDGEVKSVDGISKIFSLMKEARKMVSRCTYLNILLQTRSPEILVKFIDVGGYKLLNNWLTYSKTTNNIPLLQQILLTLQHLPLTVDHLKQNNTAKLVKQLSKSSEDEELRKLASVLVSDWMAVIRSQSSTQPAEKDKKKRKDEGKSRTTLPERPLTEVKAETRAEEAPEKKREKPKSLRTTAPSHAKFRSTGLELETPSLVPVKKNASTVVVSDKYNLKPIPLKRQSNVAAPGDATPPAEKKYKPLNTTPNATKEIKVKIIPPQPMEGLGFLDALNSAPVPGIKIKKKKKVLSPTAAKPSPFEGKTSTEPSTAKPSSPEPAPPSEAMDADRPGTPVPPVEVPELMDTASLEPGALDAKPVESPGDPNQLTRKGRKRKSVTWPEEGKLREYFYFELDETERVNVNKIKDFGEAAKREILSDRHAFETARRLSHDNMEEKVPWVCPRPLVLPSPLVTPGSNSQERYIQAEREKGILQELFLNKESPHEPDPEPYEPIPPKLIPLDEECSMDETPYVETLEPGGSGGSPDGAGGSKLPPVLANLMGSMGAGKGPQGPGGGGINVQEILTSIMGSPNSHPSEELLKQPDYSDKIKQMLVPHGLLGPGPIANGFPPGGPGGPKGMQHFPPGPGGPMPGPHGGPGGPVGPRLLGPPPPPRGGDPFWDGPGDPMRGGPMRGGPGPGPGPYHRGRGGRGGNEPPPPPPPFRGARGGRSGGGPPNGRGGPGGGMVGGGGHRPHEGPGGGMGNSSGHRPHEGPGGGMGSGHRPHEGPGGSMGGGGGHRPHEGPGGGISGGSGHRPHEGPGGGMGAGGGHRPHEGPGGSMGGSGGHRPHEGPGHGGPHGHRPHDVPGHRGHDHRGPPPHEHRGHDGPGHGGGGHRGHDGGHSHGGDMSNRPVCRHFMMKGNCRYENNCAFYHPGVNGPPLP [PPP1R10]	0.0711	51	50.8	0.274	4.23	3.65
MGSMFRSEEVALVQLFLPTAAAYTCVSRLGELGLVEFRDLNASVSAFQRRFVVDVRRCEELEKTFTFLQEEVRRAGLVLPPPKGRLPAPPPRDLLRIQEETERLAQELRDVRGNQQALRAQLHQLQLHAAVLRQGHEPQLAAAHTDGASERTPLLQAPGGPHQDLRVNFVAGAVEPHKAPALERLLWRACRGFLIASFRELEQPLEHPVTGEPATWMTFLISYWGEQIGQKIRKITDCFHCHVFPFLQQEEARLGALQQLQQQSQELQEVLGETERFLSQVLGRVLQLLPPGQVQVHKMKAVYLALNQCSVSTTHKCLIAEAWCSVRDLPALQEALRDSSMEEGVSAVAHRIPCRDMPPTLIRTNRFTASFQGIVDAYGVGRYQEVNPAPYTIITFPFLFAVMFGDVGHGLLMFLFALAMVLAENRPAVKAAQNEIWQTFFRGRYLLLLMGLFSIYTGFIYNECFSRATSIFPSGWSVAAMANQSGWSDAFLAQHTMLTLDPNVTGVFLGPYPFGIDPIWSLAANHLSFLNSFKMKMSVILGVVHMAFGVVLGVFNHVHFGQRHRLLLETLPELTFLLGLFGYLVFLVIYKWLCVWAARAASAPSILIHFINMFLFSHSPSNRLLYPRQEVVQATLVVLALAMVPILLLGTPLHLLHRHRRRLRRRPADRQEENKAGLLDLPDASVNGWSSDEEKAGGLDDEEEAELVPSEVLMHQAIHTIEFCLGCVSNTASYLRLWALSLAHAQLSEVLWAMVMRIGLGLGREVGVAAVVLVPIFAAFAVMTVAILLVMEGLSAFLHALRLHWVEFQNKFYSGTGYKLSPFTFAATDD [TCIRG1]	-0.278	53	54.1	0.0336	-2.43	-1.47
